# Experimental data from IntAct's records for PubMed 28712572.
# Biological target: gbrap_human GABARAP (UniProt O95166)
# Sequence (O95166 whole entry): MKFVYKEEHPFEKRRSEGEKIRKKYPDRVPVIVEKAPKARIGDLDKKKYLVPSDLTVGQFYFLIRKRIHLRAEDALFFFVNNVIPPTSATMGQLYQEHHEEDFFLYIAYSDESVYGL
row,effect of a mutation on the interaction,Substance
1,with no effect,"Pericentriolar material 1 protein (Homo sapiens), Q15154 L1973W"
2,with no effect,"Pericentriolar material 1 protein (Homo sapiens), Q15154 L1973Y"
3,with no effect,"Pericentriolar material 1 protein (Homo sapiens), Q15154 N1953C"
4,with no effect,"Pericentriolar material 1 protein (Homo sapiens), Q15154 N1953G"
5,with no effect,"Pericentriolar material 1 protein (Homo sapiens), Q15154 N1953K"
6,with no effect,"Pericentriolar material 1 protein (Homo sapiens), Q15154 N1953M"
7,with no effect,"Pericentriolar material 1 protein (Homo sapiens), Q15154 N1953P"
8,with no effect,"Pericentriolar material 1 protein (Homo sapiens), Q15154 N1953W"
9,with no effect,"Pericentriolar material 1 protein (Homo sapiens), Q15154 N1953Y"
10,with no effect,"Pericentriolar material 1 protein (Homo sapiens), Q15154 P1970C"
11,decreasing interaction strength,"Pericentriolar material 1 protein (Homo sapiens), Q15154 P1970E"
12,with no effect,"Pericentriolar material 1 protein (Homo sapiens), Q15154 P1970H"
13,disrupting interaction strength,"Pericentriolar material 1 protein (Homo sapiens), Q15154 P1970K"
14,decreasing interaction strength,"Pericentriolar material 1 protein (Homo sapiens), Q15154 P1970N"
15,decreasing interaction strength,"Pericentriolar material 1 protein (Homo sapiens), Q15154 P1970R"
16,disrupting interaction strength,"Pericentriolar material 1 protein (Homo sapiens), Q15154 P1970S"
17,disrupting interaction strength,"Pericentriolar material 1 protein (Homo sapiens), Q15154 P1970T"

row,effect of a mutation on the interaction,Substance
1,disrupting interaction strength,"Pericentriolar material 1 protein (Homo sapiens), Q15154 P1970V"
2,with no effect,"Pericentriolar material 1 protein (Homo sapiens), Q15154 P1970W"
3,disrupting interaction strength,"Pericentriolar material 1 protein (Homo sapiens), Q15154 P1970Y"
4,with no effect,"Pericentriolar material 1 protein (Homo sapiens), Q15154 Q1956C"
5,with no effect,"Pericentriolar material 1 protein (Homo sapiens), Q15154 Q1956D"
6,with no effect,"Pericentriolar material 1 protein (Homo sapiens), Q15154 Q1956E"
7,with no effect,"Pericentriolar material 1 protein (Homo sapiens), Q15154 Q1956F"
8,with no effect,"Pericentriolar material 1 protein (Homo sapiens), Q15154 Q1956H"
9,with no effect,"Pericentriolar material 1 protein (Homo sapiens), Q15154 Q1956M"
10,with no effect,"Pericentriolar material 1 protein (Homo sapiens), Q15154 Q1956P"
11,with no effect,"Pericentriolar material 1 protein (Homo sapiens), Q15154 Q1956R"
12,with no effect,"Pericentriolar material 1 protein (Homo sapiens), Q15154 Q1956S"
13,with no effect,"Pericentriolar material 1 protein (Homo sapiens), Q15154 Q1956T"
14,with no effect,"Pericentriolar material 1 protein (Homo sapiens), Q15154 Q1956V"
15,with no effect,"Pericentriolar material 1 protein (Homo sapiens), Q15154 S1955A"
16,with no effect,"Pericentriolar material 1 protein (Homo sapiens), Q15154 S1955D"

# Further lines, the substance ahead of its results:
row,Substance,effect of a mutation on the interaction
1,"Pericentriolar material 1 protein (Homo sapiens), Q15154 N1953A",with no effect
2,"Pericentriolar material 1 protein (Homo sapiens), Q15154 N1953D",with no effect
3,"Pericentriolar material 1 protein (Homo sapiens), Q15154 N1953E",with no effect
4,"Pericentriolar material 1 protein (Homo sapiens), Q15154 N1953F",with no effect
5,"Pericentriolar material 1 protein (Homo sapiens), Q15154 N1953H",with no effect
6,"Pericentriolar material 1 protein (Homo sapiens), Q15154 N1953I",with no effect
7,"Pericentriolar material 1 protein (Homo sapiens), Q15154 N1953L",with no effect
8,"Pericentriolar material 1 protein (Homo sapiens), Q15154 N1953Q",with no effect
9,"Pericentriolar material 1 protein (Homo sapiens), Q15154 N1953R",with no effect
10,"Pericentriolar material 1 protein (Homo sapiens), Q15154 N1953S",with no effect
11,"Pericentriolar material 1 protein (Homo sapiens), Q15154 N1953T",with no effect
12,"Pericentriolar material 1 protein (Homo sapiens), Q15154 N1953V",with no effect
13,"Pericentriolar material 1 protein (Homo sapiens), Q15154 P1970A",decreasing interaction strength
14,"Pericentriolar material 1 protein (Homo sapiens), Q15154 P1970D",decreasing interaction strength
15,"Pericentriolar material 1 protein (Homo sapiens), Q15154 P1970F",with no effect
16,"Pericentriolar material 1 protein (Homo sapiens), Q15154 P1970G",decreasing interaction strength
17,"Pericentriolar material 1 protein (Homo sapiens), Q15154 P1970I",decreasing interaction strength
18,"Pericentriolar material 1 protein (Homo sapiens), Q15154 P1970L",decreasing interaction strength
19,"Pericentriolar material 1 protein (Homo sapiens), Q15154 P1970M",decreasing interaction strength
20,"Pericentriolar material 1 protein (Homo sapiens), Q15154 P1970Q",decreasing interaction strength
21,"Pericentriolar material 1 protein (Homo sapiens), Q15154 Q1956A",with no effect
22,"Pericentriolar material 1 protein (Homo sapiens), Q15154 Q1956G",with no effect
23,"Pericentriolar material 1 protein (Homo sapiens), Q15154 Q1956I",with no effect
24,"Pericentriolar material 1 protein (Homo sapiens), Q15154 Q1956K",with no effect
25,"Pericentriolar material 1 protein (Homo sapiens), Q15154 Q1956L",with no effect
26,"Pericentriolar material 1 protein (Homo sapiens), Q15154 Q1956N",with no effect
27,"Pericentriolar material 1 protein (Homo sapiens), Q15154 Q1956W",with no effect
28,"Pericentriolar material 1 protein (Homo sapiens), Q15154 Q1956Y",with no effect
29,"Pericentriolar material 1 protein (Homo sapiens), Q15154 S1955C",with no effect
30,"Pericentriolar material 1 protein (Homo sapiens), Q15154 S1955E",with no effect
